Experiment: yeast display, Sf9 membrane polyspecificity reagent, FACS + sequencing; frameworks hold sequencing errors
How it was run: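 A synthetic nanobody library was expressed on Saccharomyces cerevisiae BJ5465 by galactose induction for 36–48 hours. The library was stained for 1 hour at 4 °C with 10% biotinylated, detergent-solubilized Sf9 membrane reagent and enriched with streptavidin microbeads before FACS. Low and high (top ~1%) gates were set on anti-HA fluorescence for expression and streptavidin fluorescence for reagent binding, and each polyreactivity label reflects the gate of origin.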

| Sequence | polyreactivity (PSR sort gate) |
| --- | --- |
| QVQLVESGGGLVQAGGSLRLSCAASGFNFDGNAMGWYRQEPGKEMELVARITWDDGSTYYADSVKGRFTISRDNAKNTVYLQMNSLKPEDTAVYYCNTDYGEYYSLDLLWWYIPYDYWGQGTQVTVSS | low polyreactivity |
| QVQLVESGGGLVQAGGSLRLSCAASGFNFEENAMGWYRQAPGKERELVAAINWSGGNTYYADSVKGRFTISRDNAKNTVYLQMNSLKPEDTAVYYCAAEYRSWSWRMDYWGQGTQVTVSS | high polyreactivity |
| QVQLVESGGGLVQAGGSLRLSCAASGFNFGYNALGRYRQAPGKEREMVAAISSGGSTYYADSVKGRFTISRDNAKNTVYLQMNSLQPEDTAVYYCAVELGYPIQSYALWWDFEYWGQGTQVTGSS | low polyreactivity |
| QVQLVESGGGLVQAGGSLRLSCAASGFNFRKYAMGWYRQAPGKERELVASITSGGGSTYYADSVKGRFTISRDNAKNTVYLQMNSLKPEDTAVYYCAAVAYTGGPRKLGFNYWGQGTQVTVSS | high polyreactivity |
| QVQLVESGGGLVQAGGSLRLSCAASGFNFVGNAMGWYRQAPGKERELVADITGSDGSTYYADSVKGRFTISRDNAKNTVYLQMNSLKPEDTAVYYCAASPPYKLVWWRRMDYWGQGTQVTVSS | low polyreactivity |
| QVQLVESGGGLVQAGGSLRLSCAASGFNFVRYAMGWYRQAPRKERELVAAITRRGGSTHYADSVKGRFTISRDNAKNTVYLQMNSLKPEDTAVYYCGAGRQYYYLDRFPRVQGDYWGQATQVTVSS | high polyreactivity |
| QVQLVESGGGLVQAGGSLRLSCAASGFNFWRYAMGWYRQAPGKERELVASITSTGGSTYYADSVKGRFTISRDNAKNTVYLQMNSLKPEDTAVYYCAADTFVWADWSWHYYWGQGTQVTVSS | high polyreactivity |
| QVQLVESGGGLVQAGGSLRLSCAASGFNFWRYAMGWYRQAPGKERELVAVITWSGTRTYYADSVKGRFTISRDNAKNTVYLQMNSLKPEDTAVYYCAALYYGFRLTYGYDYWGQGTQVTVSS | high polyreactivity |
| QVQLVESGGGLVQAGGSLRLSCAASGFNIYNNAMAWYRQAPGKERELVAAITSNGGRTYYADSVKGRFTISRDNAKNTFYLQMNSLKPEDTAVYYCAVDLYVWNVHYYYWGQGTQVTVSS | high polyreactivity |
| QVQLVESGGGLVQAGGSLRLSCAASGFNLRRNAMGWYRQAPGKERELVAAITSSGGRTTYADSVKGRFTISRDNAKNTVYLQMNSLKPEDTAVYYCAADFHVDYDYWGQGTQVTVSS | high polyreactivity |
| QVQLVESGGGLVQAGGSLRLSCAASGFSFLAYAMGWYRQAPGKERELVAAINSSDGTTHYADSVKGRFTISRDNAKNTVYLQMNSLKPEDTAVYYCAVSQVRTGEGYHYWGQGTQVTVSS | low polyreactivity |
| QVQLVESGGGLVQAGGSLRLSCAASGFSFWSNDMGWSRQAPGKEREFVAAITTSGGNTYYADSVKGRFTISRDNAKNTVYLQMQSLKPEDTAVYYCAAEEGSTDATGYDYWGEGTQVTVSS | low polyreactivity |
| QVQLVESGGGLVQAGGSLRLSCAASGFSVPLYTMGWYRQAPGKERELVAAISVTGGSTYYADSVKGRFTISRDNAQNTVYLPMNSLKPEDTAVYYCNAYLFFLNRVWSFDYWGQGTQVTVSS | low polyreactivity |
| QVQLVESGGGLVQAGGSLRLSCAASGFTCYIYAMGWYRQAPGKERELVAGITSGGTNYADSVKGRFTISRDNAKNTVYLQINSLKPEDTAVYYCATDYYDDVTIGYDYWGQGTQVTFSS | low polyreactivity |
| QVQLVESGGGLVQAGGSLRLSCAASGFTFAFYTMGWYRQAPGKERELVAGITRSGTNTYYADSVKGRFTISRDNAKNTVYLQMNSLKPEDTAVYYCAAAIRPGMDYWGQGTQVTVSS | high polyreactivity |
| QVQLVESGGGLVQAGGSLRLSCAASGFTFAKYAMGWYRQAPGKERELVAAISSNGGTTYYADSVKGRFTISRDNAKNTDYLQMNSLKPEDTALYYCAAYTYRRPSTFTKVAFDYWGQGSQVTVSS | high polyreactivity |
| QVQLVESGGGLVQAGGSLRLSCAASGFTFALYAMGWYRQAPGKERELVAAITKGGGSTYYADSVKGRFTISRDNAKITVYLQMNSLKPEDTAVYYCAARGRYSAPDYGYWGQGTQVTVSS | high polyreactivity |
| QVQLVESGGGLVQAGGSLRLSCAASGFTFARNAMGWYRQAPGKERELVAGITSRGSSTSYADSVKGRFTISRDNAKNTVYLQMNSLKPEDTAVYYCAAVPRYRDRGQYGYWGQGTQVTVSS | high polyreactivity |
| QVQLVESGGGLVQAGGSLRLSCAASGFTFARYAMGWYRQAPGKERELVAAITSGSSTYYADSVKGRFTISRDNAKNTVYLQMNSLKPEDTAVYYCAARSFLQSYYYWGQGTQVTVSS | high polyreactivity |
| QVQLVESGGGLVQAGGSLRLSCAASGFTFASNDMGWYIPAPGKERELVSAITKGGGRTYYADSVKGRFTISRDNAKNTVYLQMNSLKPEDTAVYYCAASHDKRRQYFVGQSAFDYWGQGTQVTVSS | low polyreactivity |
| QVQLVESGGGLVQAGGSLRLSCAASGFTFASYVMGWYRQAPGKERELVAAISYSGGYTYYADSVKGRFTISRDNAKNTVYLQMNSLKPEDTAVYYCNARYLQGYSGRYGYWGQGTQVTVSS | high polyreactivity |
| QVQLVESGGGLVQAGGSLRLSCAASGFTFAVYAMGWYRQAPGKERELVAAISDSGGSTYYADSVKGRFTISRDNAKNTVYLQMNSLKPEDTAVYYCNRDWIVSGYYAYYEFDYWGQGTQVTVSS | low polyreactivity |

| Sequence | polyreactivity (PSR sort gate) |
| --- | --- |
| QVQLVESGGGLVQAGGSLRLSCAASGFTFAVYVMGWYRQAPGKERELVATISFSVGSTYYADSVKGRFTISRDNAKNTVYLQMNSLKPEDTAVYDCNADPPPEYYPDKDNYWGQGTQVTVSS | low polyreactivity |
| QVQLVESGGGLVQAGGSLRLSCAASGFTFAWYAMGWYRQAPGKERELVAAINWSGGRTYYADSVKGRFTISRDNAKNTVYLQMNSLKPEDTAVYYCAAPHLVKRSEFDYWGQGTQVTVSS | high polyreactivity |
| QVQLVESGGGLVQAGGSLRLSCAASGFTFAYYAMGWYRQAPGKERELVAAITGSGGRTYYADSVKGRFTISRDNAKNTVYLQMNSLKPEDTAVYYCAALTGPYKAQVHGGHTPLDYWGQGTQVTVSS | low polyreactivity |
| QVQLVESGGGLVQAGGSLRLSCAASGFTFCRNTMGWYRQAPGKEREFVAAIDWSGGSTTYADSVKGRFTISRDNAKNTVYLQMNSLKPEDTAVYYCAADERRRHYWWGQESDYWGQGTQVNVSS | low polyreactivity |
| QVQLVESGGGLVQAGGSLRLSCAASGFTFDAYTMGWYREAPGKERELVAAINWSGDTTYYADSVKGRFTISRDNAMNTVYLQMNSLKPEDTAVYYCAAVWLNYGVWFDYWGQGTQVTVSS | high polyreactivity |
| QVQLVESGGGLVQAGGSLRLSCAASGFTFDDYDMGWYRQAPGKERELVAAISWSGGSTYYADSVKGRFTFSRDNAKNTVYLQMNSLKPEDSAVYYCAAERSYGGFDYWGQGTQVTVSS | low polyreactivity |
| QVQLVESGGGLVQAGGSLRLSCAASGFTFDENAMGWYRQAPGINYSGASTYYADSVKGRFTISRDNAKNTVYFQMNSLKPEDTAVYYCAAEVVAQMNYWGQGTQVTVSS | low polyreactivity |
| QVQLVESGGGLVQAGGSLRLSCAASGFTFDFYAMGWYRQAPGKERELVAAINWSGSSTYYADSVKGRFTISRDNAKNTVYLQMNSLKPEDTAVYYCAAQVYYTLFPDVYTMYYWGQGTQVTVSS | high polyreactivity |
| QVQLVESGGGLVQAGGSLRLSCAASGFTFDFYVMGWYRQAPGKERELVAAITSGGGTYYADSVKGRFTISRDNAKNTVYLQMNSLKPEDTAVYYCAVSVTTVSTYDYWGQGTQVTVSS | low polyreactivity |
| QVQLVESGGGLVQAGGSLRLSCAASGFTFDKNAMGWYRQAPGKERELVAAINIGSTYYADSVKGRFTISRDNAKNTVYLQMNSLKPEDSAVYYCAKEVPSGYWVNYYYWGQGTQVTVSS | low polyreactivity |
| QVQLVESGGGLVQAGGSLRLSCAASGFTFDSYAMGWYRQAPGKERELVAAITSDGSTYYADSVKGRFTISRDNAKNSVYLQMNSLKPEDTAVYYCAADGISLYATAYDFWGQGTQVTVSS | low polyreactivity |
| QVQLVESGGGLVQAGGSLRLSCAASGFTFDSYAMGWYRQAPGKERELVAAITSDGSTYYADSVKGRFTISRDNAKNTVYLQMNSLKPEDTAVYYCAADGRYFRAVFRLYDYWGQGTQVTVSS | low polyreactivity |
| QVQLVESGGGLVQAGGSLRLSCAASGFTFDSYAMGWYRQAPGTERELVASISSSGSTNYADSVKGRFTISRDNAKNTVYLQMNSLKPEDTAVYYCAAESRYPFIYEYWGQGTQVTVSS | low polyreactivity |
| QVQLVESGGGLVQAGGSLRLSCAASGFTFDYNAMGWYRQAPGKERELVASIDQSGGSTYYADSVKGRFTISRDNAKNTVYLQMNSLKPEDTAVYYCAAEGYYTSTYDLYDYYYWGQGTQVTVSS | low polyreactivity |
| QVQLVESGGGLVQAGGSLRLSCAASGFTFDYYDMGWYRQAPGKERELVAGITYSGGRTRYADSVKGRFTISRDNAKNTVYLQMNSLKPEDTAVYYCAARPGYPYRMNYWGQGTQVTVSS | low polyreactivity |
| QVQLVESGGGLVQAGGSLRLSCAASGFTFDYYTMGWYRQAPGKEREFVAAITWNGGSTYYADSVKGRFTISRYNAKNTVYLQMNSLKPEDSAVYYCAADTTYGINRREYWGQGTQVTVSS | low polyreactivity |
| QVQLVESGGGLVQAGGSLRLSCAASGFTFEFNVMGWYRQAPGKERELVASIRWGSTSYADSVKGRFTISRDNAKNTVYLQMNSLKPEDTAVYYCAADRSTGLGDDDYWGQGTQVTVSS | low polyreactivity |
| QVQLVESGGGLVQAGGSLRLSCAASGFTFEGYAMGWYRQAPGKERDLVAAISSNGGRTYYADSVKGRFTISRDNAKNPVYLQMNSLKPEDTAVYYCNADGYGDYSFLKYRFEYDYWGQGTQVTVSS | low polyreactivity |
| QVQLVESGGGLVQAGGSLRLSCAASGFTFEKYAMGWYRQAPGHERELVASISWSGGRTRYADSVKGRFTISRDNAKNTVYLQMNSLTPEDTAVDYCAASYRYFGRSTVRYDYWGQGTQVTVSS | high polyreactivity |
| QVQLVESGGGLVQAGGSLRLSCAASGFTFEKYAMGWYRQAPGKERELVAAITQSAGSTYADSVKGRFTISRDNAKNTVYLQMNSLKPVDTAVYYCAARYRYPYYARYGYWGQGTQVTVSS | high polyreactivity |
| QVQLVESGGGLVQAGGSLRLSCAASGFTFEKYVMGWYIQAPGKETEFVAAITRSGGRTYYADSVKGRFTISRDNAKNTVYLQMNSLKPEDTAVYSCNAVTSWAGSLDYWGQGTQVTVSS | high polyreactivity |
